In patent publication US20190071501A1 (REYOUNG SUZHOU BIOLOGY SCIENCE AND TECHNOLOGY, published 2019):

What was measured:
[1] = target: Recombinant human PD-1 fusion protein (human); experiment: ELISA: recombinant human PD-1 fusion protein coated at 0.5 ug/mL, antibody kept 1 day in monkey serum at 37 C, goat anti-human FAB-HRP, OD450
PD1-Fc-His [2] = target: T1, PD1-Fc-His (UniProt Q15116 25-167, limits assumed); experiment: Inhibition ELISA: graded antibody pre-incubated with PD1-Fc-His, added to a plate laid with 'PD1-Fc' (so in the source), anti-His-HRP, OD450
T1 construct: not shown: Fc; His tag
T1 sequence (Q15116 25-167 limits assumed): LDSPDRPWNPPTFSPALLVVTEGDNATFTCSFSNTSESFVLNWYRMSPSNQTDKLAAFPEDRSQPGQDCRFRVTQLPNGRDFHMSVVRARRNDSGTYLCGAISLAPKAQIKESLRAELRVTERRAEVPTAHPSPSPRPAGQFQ
Procedure: (§1) Incubate the gradient diluted antibody and a certain concentration of PD1-Fc-His in advance, then add the mixture to the plate laid with PD1-Fc. Add anti-His-HRP to the plate after incubating and washing. Then perform coloration. Draw up the reaction curve by fitting of readings (see FIG. 7 for results) to calculate the IC50 value.

[3] = target: Recombinant human PD-1 fusion protein (human); experiment: ELISA: recombinant human PD-1 fusion protein coated at 0.5 ug/mL, antibody kept 4 days in monkey serum at 37 C, goat anti-human FAB-HRP, OD450
recombinant human CTLA-4 = target: T2, recombinant human CTLA-4 (human, UniProt P16410 36-161, limits assumed); experiment: ELISA: protein coated at 0.5 ug/mL, antibody at 0.5 ug/mL, goat anti-human FAB-HRP, OD450
T2 construct: Plate-coated at 0.5 ug/mL in Embodiment 8
T2 sequence (looked up): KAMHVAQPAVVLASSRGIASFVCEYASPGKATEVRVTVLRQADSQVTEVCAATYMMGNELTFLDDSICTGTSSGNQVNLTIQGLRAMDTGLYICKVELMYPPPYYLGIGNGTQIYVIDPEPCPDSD
Procedure: (§2) The binding of recombinant human CD28, recombinant human CTLA-4, recombinant mouse PD-1, recombinant M.fascicularis PD-1 and recombinant human PD-1 protein in recombinant CD28 family to antibodies is tested. Different proteins are stored at 0.5 μg/mL in enveloping buffer at 4° C. overnight. Remove the solution in wells the next day and wash with PBST for twice. Then add 1% BSA, seal at 37° C. for 1 hour, then wash with PBST for twice. Add 0.5 μg/mL antibody samples, incubate for 1 hour, and wash with PBST for three times. Dilute with goat anti-human FAB-HRP at ratio of 1:10000, incubate for 1 hour at 37 C, and wash with PBST for three times. Add TMB for 15 min coloration, stop the reaction with 0.5M H2SO4 and read out the absorbance at 450 nm.

mouse pd1 = target: T3, mouse pd1 (mouse, UniProt Q02242); experiment: as above
T3 construct: recombinant protein coated on the ELISA plate; also called recombinant mouse PD-1
T3 sequence (receptor, looked up): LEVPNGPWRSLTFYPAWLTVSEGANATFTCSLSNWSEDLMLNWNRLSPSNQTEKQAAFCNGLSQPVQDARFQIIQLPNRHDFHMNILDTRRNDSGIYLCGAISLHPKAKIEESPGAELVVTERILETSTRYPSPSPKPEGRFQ
Procedure: as §2

recombinant human CD28 = target: T4, recombinant human CD28 (human, UniProt P10747 19-152, limits assumed); experiment: as above
T4 construct: Plate-coated at 0.5 ug/mL in Embodiment 8
T4 sequence (P10747 19-152 limits assumed): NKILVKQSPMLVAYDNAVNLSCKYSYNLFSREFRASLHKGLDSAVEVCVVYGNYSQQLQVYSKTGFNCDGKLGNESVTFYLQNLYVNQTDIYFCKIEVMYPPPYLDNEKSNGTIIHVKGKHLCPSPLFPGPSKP
Procedure: as §2

[4] = target: Recombinant human PD-1 fusion protein (human); experiment: ELISA: recombinant human PD-1 fusion protein coated at 0.5 ug/mL, antibody kept 7 days in monkey serum at 37 C, goat anti-human FAB-HRP, OD450
PD1-Fc-His [5] = target: T1, PD1-Fc-His; experiment: competition ELISA: antibody pre-incubated with PD1-Fc-His, plate coated with 'PD1-Fc' (competitor (so in the source)), anti-His-HRP; humanized-section antibody; ELISA competition, PD1-Fc-His in solution
Procedure: as §1

[6] = target: Recombinant human PD-1 fusion protein (human); experiment: ELISA: recombinant human PD-1 fusion protein coated at 0.5 ug/mL, antibody kept 0 days in monkey serum at 37 C, goat anti-human FAB-HRP, OD450
PD1-His [7] = target: T5, PD1-His (human, UniProt Q15116 25-167, limits assumed); experiment: ELISA, PD1-His coated; ELISA, PD1-His on the plate
T5 construct: also called hPD-1; not shown: His tag
T5 sequence (Q15116 25-167 limits assumed): as the sequence (Q15116 25-167 limits assumed) above
Procedure: Lay PD1-His on the plate, add gradient diluted antibody, incubate and wash it, and then add goat anti-mouse-HRP, perform coloration, and draw up the reaction curve by fitting of readings (see FIG. 6 for results) to calculate the EC50 value.

[8] = target: T6, PD1 on PD1-27 cells (PD1 over-expressed CHO-K1 stable transfected cells) (UniProt Q15116 25-288); experiment: direct cell binding on PD1-27 CHO-K1 cells, EU fluorescence (heading 'Cell binding activity'; value printed as 'cell inhibitory activity IC50'); direct cell binding on PD1-27 cells, no competitor
T6 construct: whole, on cells
T6 sequence (Q15116 25-288 limits assumed): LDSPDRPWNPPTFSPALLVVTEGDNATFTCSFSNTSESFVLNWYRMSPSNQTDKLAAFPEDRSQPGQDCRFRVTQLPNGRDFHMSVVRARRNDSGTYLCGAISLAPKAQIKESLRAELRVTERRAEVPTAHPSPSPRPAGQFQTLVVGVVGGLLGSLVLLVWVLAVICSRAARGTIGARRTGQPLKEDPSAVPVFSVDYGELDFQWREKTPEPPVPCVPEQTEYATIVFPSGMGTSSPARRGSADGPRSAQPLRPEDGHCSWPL
Text: (§3) Lay PD1-27 (PD1 over-expressed CHO-K1 stable transfected cells) on the cell plate for culture inspection one day ahead of schedule. After closure on the next day, add gradient-diluted antibody, then anti-mouse-EU after washing, then fluorescence enhancement solution after washing, and obtain the readings.

[9] = target: T7, PD-1 antigen of the Biacore experiment (not given) (UniProt Q15116 25-167, limits assumed); experiment: SPR (Biacore), antibody captured by goat anti-human IgG on CM5 chip
T7 construct: Embodiment 5 describes capture by goat anti-human IgG on the chip but never names the analyte
T7 sequence (Q15116 25-167 limits assumed): as the sequence (Q15116 25-167 limits assumed) above
Text: Biacore is used to analyze the affinity and binding kinetics of the antibody expressed in cell line 4. Using standard amine coupling chemistry and the kit provided by Biacore, the goat anti-human IgG is covalently linked to CMS chip by primary amine. Make the antibody flow in the HBS EP buffer at a flow rate of […] and measure the binding. The binding time is 300 seconds, and the dissociation time is 7200 seconds.

[10] = target: T6, PD1 on PD1-27 cells (PD1 over-expressed …); experiment: cell competition on PD1-27 CHO-K1 cells against 'PD1-Fc' (competitor (so in the source)), anti-Human-EU; mouse antibody; cell competition on PD1-27 CHO-K1 cells
Text: Lay PD1-27 (PD1 over-expressed CHO-K1 stable transfected cells) on the cell plate for culture inspection one day ahead of schedule. After closure on the next day, add gradient-diluted antibody and PD1-Fc, then anti-Human-EU after washing, and then fluorescence enhancement solution after washing.

PD1-His [11] = target: T5, PD1-His; experiment: ELISA, PD1-His coated, goat anti-mouse-HRP
Procedure: Envelop PD1-His on the plate, add gradient diluted antibody, incubate and wash it, and then add goat anti-mouse-HRP, perform coloration, and draw up the reaction curve by fitting of readings (see FIG. 1 for results) to calculate the EC50 value.

PD1-Fc-His [12] = target: T1, PD1-Fc-His; experiment: competition ELISA: antibody pre-incubated with PD1-Fc-His, plate coated with 'PD1-Fc' (competitor (so in the source)), anti-His-HRP; mouse antibody; ELISA competition, PD1-Fc-His in solution
Procedure: as §1, with “enveloped” for “laid”, “2” for “7”

[13] = target: T6, PD1 on PD1-27 cells (PD1 over-expressed …); experiment: cell binding on PD1-27 CHO-K1 cells, anti-mouse-EU fluorescence
Text: as §3

PD1-Fc-His [14] = target: T1, PD1-Fc-His; experiment: Inhibition ELISA: graded antibody pre-incubated with PD1-Fc-His, added to a plate coated with 'PD1-Fc' (so in the source), anti-His-HRP, OD450
Procedure: as §1, with “enveloped” for “laid”, “2” for “7”

Chain of Recombinant human PD-1 fusion protein (human) (Q15116 25-170): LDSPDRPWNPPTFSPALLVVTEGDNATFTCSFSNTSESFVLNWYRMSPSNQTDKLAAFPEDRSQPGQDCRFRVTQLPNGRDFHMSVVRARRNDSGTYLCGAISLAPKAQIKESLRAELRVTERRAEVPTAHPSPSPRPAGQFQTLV

Binder | EC50 (read off the curve) [1] | IC50 (read off the curve) (PD1-Fc-His [2]) | EC50 (read off the curve) [3] | binding result (recombinant human CTLA-4) | binding result (mouse pd1) | binding result (recombinant human CD28) | EC50 (read off the curve) [4] | IC50 (PD1-Fc-His [5]) | EC50 (read off the curve) [6] | EC50 (PD1-His [7]) | EC50 [8] | Kd [9] | koff [9] | kon [9] | IC50 [10] | EC50 (PD1-His [11]) | IC50 (PD1-Fc-His [12]) | EC50 [13] | IC50 (read off the curve) (PD1-Fc-His [14])
humanized antibody anti-PD-1 (antibody, V domains shown, Human constant regions; also called humanized PD-1 antibody; hup01 (plasmids P3.1GS-hup01-HC / P3.1GS-hup01-LC)) VH: EVQLVESGGGLVKPGGSLRLSCAASGFTFSSYTMSWVRQAPGKGLEWVATISNGGSFTYYPDSMKGRFTISRDNSKNTLYLQMSSLRAEDTAVYYCARDSDYYGIFDYWGQGTTVTVSS VL: DIVMTQSPLSLPVTPGEPASISCRSSKSLLYKDGKTYLNWYLQKPGQSPQLLIYLMSTRASGVPDRFSGSGSGTDFTLKISRVEAEDVGVYYCQQLVEDPFTFGQGTKLEIKR | 0.04 µg/mL | ~0.4 µg/mL | 0.04 µg/mL | no binding (tested: 0.5 ug/mL) | no binding (tested: 0.5 ug/mL) | no binding (tested: 0.5 ug/mL) | 0.04 µg/mL | 406 nM | 0.04 µg/mL | 0.00609 µg/mL | 0.103 µg/mL | 0.422 nM | 1.93e-05 s⁻¹ | 45700 M⁻¹ s⁻¹ | – | – | – | – | –
mouse anti-PD-1 (antibody, V domains shown, also called mouse anti-PD-1 monoclonal antibody; mouse PD-1 antibody) VH: DVKLVESGGGLVKPGGSLKLSCAASGFTFSSYTMSWVRQTPEKRLEWVATISNGGSFTYYPDSMKGRFTISRDNAKNTLYLQMSSLKSEDTAMYYCTRDSDYYGIFDYWGQGTTLTVSS VL: DIVITQDELSNPVTSGESVSISCRSSKSLLYKDGKTYLNWFLQRPGQSPQLLIYLMSTRASGVSDRFSGSGSGTDFTLEISRVKAEDVGVYYCQQLVEDPFTFGSGTKLEIKR | – | – | – | – | – | – | – | – | – | – | – | – | – | – | 0.284 µg/mL | 0.0024 µg/mL | 3.83 nM | 0.0878 µg/mL | ~0.004 µg/mL
